Reference: article PMC9165289, “Theranostic PSMA ligands with optimized backbones for intraoperative multimodal imaging and photodynamic therapy of prostate cancer” (European Journal of Nuclear Medicine and Molecular Imaging, 2022)
Where “and” joins values, the source holds several entries; their conditions need not be identical. Equal entries are not always repeated. Where two headings read alike, the source gives them in different places.

Experiments:
[1] = ex vivo biodistribution of 111In-labeled ligands; parameters: species or system BALB/c nude mice; conditions: male, BALB/c nude, mouse, iv, 0.3 nmol, total radioactivity, 2 h p.i.; for tissue uptake at 2 h: 10 MBq/mouse, i.v.
Experimental: (§1) All animal experiments were approved by the institutional Animal Welfare Committee of the Radboud University Medical Center and were conducted in accordance to the guidelines of the Revised Dutch Act on Animal Experimentation. Animal experiments were performed in 8–10 weeks old male BALB/c nude mice (Janvier). The mice were housed in individually ventilated cages (Blue line IVC, 3–5 mice per cage), under standard non-sterile conditions with cage enrichment present. There was free access to chlorophyll-free animal chow (Sniff Voer) and water. Mice were subcutaneously inoculated with 3.0 × 10^6 LS174T-PSMA cells in the right flank and 1.5 × 10^6 LS174T WT cells in the left flank (diluted in 200-µl RPMI 1640 medium). When xenografts were approximately 0.5 cm^3 (10–14 days after injection), mice were block-randomized into groups based on tumor size. The researchers were not blinded for the experimental groups.
(§2) Mice were intravenously injected with 0.3 nmol PSMA ligand, labeled with 10 MBq ^111In (molar activity 33.3 MBq/nmol) in PBS + 0.5% (w/v) BSA. For the ex vivo biodistribution, five groups (one group for each ligand) of four mice were included. Two hours p.i., all mice were euthanized by CO2/O2-asphyxiation. For two mice of each group (2 mice/ligand), background-subtracted fluorescence images were acquired with the IVIS imaging system (Xenogen VivoVision IVIS Lumina II, PerkinElmer), with a 640-nm excitation filter and a Cy5.5 emission filter and an acquisition time of 10 s. Next, µSPECT/CT imaging was performed in the same two mice per group, with a 1.0-mm diameter pinhole mouse collimator tube (U-SPECT II, MILabs). Mice were scanned for 30 min followed by a CT scan for anatomical reference (spatial resolution 160 μm, 615 μA, 65 kV). MILabs reconstruction software was used to reconstruct the µSPECT/CT scans, via an ordered-subset expectation maximization algorithm, energy windows 154–188 keV and 220–270 keV, 3 iterations, 16 subsets, and voxel size of 0.75 mm. SPECT/CT maximum intensity projections (MIPs) were created using the Inveon Research Workplace software (Siemens Preclinical Solutions, version 4.1). NIR fluorescence images were analyzed using Living Image software (PerkinElmer, version 4.2). After imaging, relevant tissues were dissected, weighed, and measured for radioactivity in a gamma-counter (2480 WIZARD^2 Automatic Gamma Counter, PerkinElmer). In addition, a blocking experiment with PSMA-N064 and PSMA-617 was performed. Full experimental procedures and results can be found in the supplementary data (Page 5, Supplementary Fig. 3).

[2] = tested on: LS174T-PSMA and LS174T wildtype xenografts; test: ex vivo biodistribution of 111In-labeled ligands; parameters: species or system BALB/c nude mice; conditions: 0.3 nmol, 2 h p.i.
Experimental: as §1, §2

PSMA = molecular target: T1, PSMA (Homo sapiens, UniProt Q04609); test: competitive binding assay using LS174T-PSMA cells
T1 construct: expressed in transfected cells; host or cells: LS174T colon carcinoma cells (LS174T-PSMA)
Text: Fig. 3 In vitro characterization of [^111In]In-DOTA(GA)-IRDye700DX-PSMA ligands varying in their backbone composition. a Labeling efficiency of [^111In]In-DOTA-PSMA-N01, -N02, -N03, [^111In]In-DOTAGA-PSMA-N064 and -N064inc at a specific activity of either 10 MBq/µg or 30 MBq/µg (n = 2). IC50 values of ligands as determined in competitive binding assays using LS174T-PSMA cells. b Binding and internalization of [^111In]In-DOTA-PSMA-N01, -N02, -N03, [^111In]In-DOTAGA-PSMA-N064 and -N064inc in LS174T PSMA-positive cells. Membrane binding and internalization are corrected for non-specific binding and accumulation, as determined by co-incubation with an excess of 2-PMPA (50 µg). [^111In]In-DOTA-PSMA-617 was added as a positive control. c PSMA-targeted PDT efficacy of ligands in vitro. Cell viability of LS174T-PSMA (PSMA +) and LS174T wildtype (PSMA-) cells following incubation with 30 nM of PSMA-N01, -N02, -N03, -N064, and -N064inc, after either a 100 J/cm^2 (450 mW/cm^2) radiant exposure or no light exposure (dark).

LS174T-PSMA cells = test: in vitro targeted PDT assay (CellTiter-Glo); type: cell-based, human; conditions: 30 nM ligand, irradiated with 100 J/cm^2
Experimental: LS174T wildtype (LS174T-WT) and LS174T-PSMA cells were cultured to confluency in 48-well plates. Cells were incubated (2 h, 5% CO2, 37 °C) with 30-nM PSMA ligand in binding buffer (RPMI 1640 + 0.5% BSA) in triplicate. After washing with PBS, a 0.5-ml binding buffer was added to each well, and cells were irradiated with a NIR light-emitting diode (690 ± 20 nm). The typical forward voltage was 2.6 V creating a power output of 490 mW using 126 individual LED bulbs to ensure homogenous illumination of the area of interest predefined as 5 × 3 cm. The cells were irradiated at NIR radiant exposures of 100 J/cm^2 ([…]) and subsequently incubated for 1 h at 37 °C. Cells that only received the PSMA ligand, only the NIR light, or neither the ligand nor the light were included as controls. Cytotoxic effects of PDT with PSMA ligands were determined with a CellTiter-Glo™ assay (Promega Benelux) according to the manufacturer’s instructions. The binding buffer was replaced with 100-µl fresh binding buffer and 100-µl CellTiter-Glo® 2.0 Assay. Plates were shaken (2 min) and incubated for 10 min at room temperature. Next, luminescence was measured in a plate reader (Tecan Infinite® 200 PRO) to determine the metabolic activity of the cells.

[3] = LS174T wildtype tumor, n=4, read-out: Biodistribution Tumor- LS174T
[4] = LS174T-PSMA tumor, n=4, read-out: Biodistribution Tumor+ LS174T-PSMA
[5] = adrenals, n=4, read-out: Biodistribution Adrenals
[6] = blood, n=4, read-out: Biodistribution Blood
[7] = bone marrow, n=4, read-out: Biodistribution Bone marrow
[8] = bone, n=4, read-out: Biodistribution Bone
[9] = duodenum, n=4, read-out: Biodistribution Duodenum
[10] = heart, n=4, read-out: Biodistribution Heart
[11] = kidney, n=4, read-out: Biodistribution Kidney
[12] = liver, n=4, read-out: Biodistribution Liver
[13] = lung, n=4, read-out: Biodistribution Lung
[14] = muscle, n=4, read-out: Biodistribution Muscle
[15] = pancreas, n=4, read-out: Biodistribution Pancreas
[16] = prostate, n=4, read-out: Biodistribution Prostate
[17] = salivary glands, n=4, read-out: Biodistribution Salivary glands
[18] = spleen, n=4, read-out: Biodistribution Spleen
[19] = stomach, n=4, read-out: Biodistribution Stomach
[20] = tumor (LS174T-PSMA xenograft) / blood, read-out: Tumor/Blood ratio
[21] = tumor (LS174T-PSMA xenograft) / kidney, read-out: Tumor/Kidney ratio
[22] = tumor (LS174T-PSMA xenograft) / liver, read-out: Tumor/Liver ratio
[23] = tumor (LS174T-PSMA xenograft) / spleen, read-out: Tumor/Spleen ratio

T1 sequence (Q04609 whole entry): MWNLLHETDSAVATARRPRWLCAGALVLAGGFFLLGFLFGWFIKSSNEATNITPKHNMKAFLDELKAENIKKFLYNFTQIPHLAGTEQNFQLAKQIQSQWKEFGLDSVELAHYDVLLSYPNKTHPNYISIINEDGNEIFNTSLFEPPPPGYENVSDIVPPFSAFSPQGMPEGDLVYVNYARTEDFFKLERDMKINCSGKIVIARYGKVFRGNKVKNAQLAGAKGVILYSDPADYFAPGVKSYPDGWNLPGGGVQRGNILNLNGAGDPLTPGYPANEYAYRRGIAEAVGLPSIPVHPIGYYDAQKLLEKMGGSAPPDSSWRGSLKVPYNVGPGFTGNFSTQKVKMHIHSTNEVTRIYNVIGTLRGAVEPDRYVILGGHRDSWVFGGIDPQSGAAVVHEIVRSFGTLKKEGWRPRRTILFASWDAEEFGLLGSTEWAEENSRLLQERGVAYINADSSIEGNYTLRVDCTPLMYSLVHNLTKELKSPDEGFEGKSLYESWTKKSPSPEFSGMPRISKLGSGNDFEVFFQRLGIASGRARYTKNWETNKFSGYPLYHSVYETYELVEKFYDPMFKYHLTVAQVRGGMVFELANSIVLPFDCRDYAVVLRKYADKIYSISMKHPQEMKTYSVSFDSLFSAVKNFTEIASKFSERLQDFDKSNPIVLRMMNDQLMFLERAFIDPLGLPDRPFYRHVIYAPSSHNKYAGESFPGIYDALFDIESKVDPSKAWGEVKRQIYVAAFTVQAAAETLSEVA

| Compound | tissue uptake at 2 h [1, 3] | tissue uptake at 2 h [1, 4] | tissue uptake at 2 h [1, 5] | tissue uptake at 2 h [1, 6] | tissue uptake at 2 h [1, 7] | tissue uptake at 2 h [1, 8] | tissue uptake at 2 h [1, 9] | tissue uptake at 2 h [1, 10] | tissue uptake at 2 h [1, 11] | tissue uptake at 2 h [1, 12] | tissue uptake at 2 h [1, 13] | tissue uptake at 2 h [1, 14] | tissue uptake at 2 h [1, 15] | tissue uptake at 2 h [1, 16] | tissue uptake at 2 h [1, 17] | tissue uptake at 2 h [1, 18] | tissue uptake at 2 h [1, 19] | tissue to tissue ratio at 2 h [1, 20] | tissue to tissue ratio at 2 h [1, 21] | tissue to tissue ratio at 2 h [1, 22] | also measured |
| --- | --- | --- | --- | --- | --- | --- | --- | --- | --- | --- | --- | --- | --- | --- | --- | --- | --- | --- | --- | --- | --- |
| C[Si](C)(CCC[N+](CCCS(=O)(=O)[O-])(CCCS(=O)(=O)O)CCCS(=O)(=O)O)O[Si]1(O[Si](C)(C)CCC[N+](CCCS(=O)(=O)[O-])(CCCS(=O)(=O)O)CCCS(=O)(=O)O)n2c3c4ccccc4c2N=C2N=C(N=c4c5c(OCCCOC(=O)NCCCCCC(=O)NCCCC[C@H](NC(=O)CN6CCN(CC(=O)O)CCN(CC(=O)O)CCN(CC(=O)O)CC6)C(=O)NCCCC[C@H](NC(=O)[C@H](CCC(=O)O)NC(=O)c6ccccc6)C(=O)NCc6ccc(C(=O)N[C@@H](Cc7ccc8ccccc8c7)C(=O)NCCCC[C@H](NC(=O)N[C@@H](CCC(=O)O)C(=O)O)C(=O)O)cc6)cccc5c(n41)=NC1=NC(=N3)c3ccccc31)c1ccccc12 [PSMA-N01] | 1.1 ± 0.2 %ID/g | 21 ± 3 %ID/g | 1.8 ± 0.1 %ID/g | 1.1 ± 0.1 %ID/g | 0.3 ± 0.2 %ID/g | 0.7 ± 0.1 %ID/g | 0.7 ± 0.1 %ID/g | 0.6 ± 0.1 %ID/g | 90 ± 7 %ID/g | 1.5 ± 0.2 %ID/g | 2.7 ± 0.9 %ID/g | 0.2 ± 0.03 %ID/g | 0.4 ± 0.1 %ID/g | 0.6 ± 0.1 %ID/g | 0.8 ± 0.1 %ID/g | 2.2 ± 0.4 %ID/g | 0.7 ± 0.1 %ID/g | 20 ± 2.5 | 0.2 ± 0.04 | 14.6 ± 2.4 | tissue to tissue ratio at 2 h [1, 23]: 9.9 ± 1.4; Biodistribution Kidney ([2]; 10 MBq/mouse, i.v., n=4): 99.2 ± 11.5 %ID/g; Tumor/Negative tumor ratio [2]: 19.7 ± 6.5; Tumor/Prostate ratio [2]: 35.6 ± 4.6; Tumor/Salivary gland ratio [2]: 27.8 ± 4.8; IC50 (PSMA): 44.8 nM and < 50 nM; cell viability (LS174T-PSMA cells): 23% ± 5% |
| C[Si](C)(CCC[N+](CCCS(=O)(=O)[O-])(CCCS(=O)(=O)O)CCCS(=O)(=O)O)O[Si]1(O[Si](C)(C)CCC[N+](CCCS(=O)(=O)[O-])(CCCS(=O)(=O)O)CCCS(=O)(=O)O)n2c3c4ccccc4c2N=C2N=C(N=c4c5c(OCCCOC(=O)NCCCCCC(=O)NCCCC[C@H](NC(=O)CCC(C(=O)O)N6CCN(CC(=O)O)CCN(CC(=O)O)CCN(CC(=O)O)CC6)C(=O)N[C@@H](Cc6ccccc6)C(=O)N[C@@H](CCC(=O)O)C(=O)N[C@@H](CCC(=O)O)C(=O)NCCCCCC(=O)NCCCC[C@H](NC(=O)N[C@@H](CCC(=O)O)C(=O)O)C(=O)O)cccc5c(n41)=NC1=NC(=N3)c3ccccc31)c1ccccc12 (stereo partly drawn) [PSMA-N064] | 0.7 ± 0.3 %ID/g | 14 ± 2 %ID/g | 1.6 ± 0.4 %ID/g | 0.3 ± 0.1 %ID/g | 0.2 ± 0.1 %ID/g | 0.7 ± 0.1 %ID/g | 0.3 ± 0.1 %ID/g | 0.4 ± 0.1 %ID/g | 74 ± 17 %ID/g | 0.9 ± 0.2 %ID/g | 0.5 ± 0.1 %ID/g | 0.1 ± 0.04 %ID/g | 0.3 ± 0.05 %ID/g | 0.6 ± 0.1 %ID/g | 0.4 ± 0.04 %ID/g | 1.4 ± 0.3 %ID/g | 0.4 ± 0.1 %ID/g | 54 ± 14.7 | 0.2 ± 0.03 | 15.6 ± 3.6 | tissue to tissue ratio at 2 h [1, 23]: 9.6 ± 0.4; Tumor/Negative tumor ratio [2]: 23.8 ± 9.7; Tumor/Prostate ratio [2]: 21.9 ± 1.7; Tumor/Salivary gland ratio [2]: 33.8 ± 6.6 |
